Columns and labels:
MS2 coat protein [1] = test: apparent KD of MS2 coat protein, switch OFF state (with FMN for OFF switches, without FMN for ON switches); designed switch direction (-1 OFF switch, 1 ON switch): 1; higher = weaker reporter binding; conditions: FMN input: 0 or 200 uM; Eterna round: R93 (includes R88 designs)
Summary of the method: (§1)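 With or without constant ligand, designed RNA switches in 100 mM Tris-HCl pH 7.5, 80 mM KCl and 4 mM MgCl2 were titrated with SNAP-549-labelled MS2 coat protein. Concentrations went up in twofold steps from 0.7 or 1.5 nM to 3 µM. The switches had been transcribed on-chip from Illumina sequencing clusters, and apparent KD is the per-design median of normalised cluster binding-curve fits.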

MS2 coat protein [2] = test: apparent KD of MS2 coat protein, switch ON state; designed switch direction (-1 OFF switch, 1 ON switch): 1; higher = weaker reporter binding; conditions: FMN input: 0 or 200 uM; Eterna round: R93 (includes R88 designs)
Summary of the method: as §1

## AAUAUAUUAAGUGAGGAUAUCGAGGAAAAAACAUGAGGAUCACCCAUGUGGGAAACCUGGUCGGGUGAGAAGGCACUUAAUAUAU [Samwise Clockwise 26 - Jieux - Same State 2]
MS2 coat protein [1]
  apparent KD of MS2 coat protein: 0.0767 µM
MS2 coat protein [2]
  apparent KD of MS2 coat protein: 0.0198 µM

## AUAUGGGCCCAUCAGGAUAUGUUCGGCGGAACAUGAGGAUCACCCAUGUGACAAAAGACGCCCACGCAGAAGGGAUUACAGGCAA [Anistera]
MS2 coat protein [1]
  apparent KD of MS2 coat protein: 0.0497 µM
MS2 coat protein [2]
  apparent KD of MS2 coat protein: 0.022 µM

## AAAAUAAAAUAAAAGGAUAUAAAAAAAUAUACAUGAGGAUCACCCAUGUAUAUAAAAAUAAAAUAAAAGAAGGAAUAAAAAUAAA [SS2 506: MS2 6]
MS2 coat protein [1]
  apparent KD of MS2 coat protein: 0.0111 µM
MS2 coat protein [2]
  apparent KD of MS2 coat protein: 0.0103 µM

## AAAAUACAUGAGGAUCACCCAUGUGAGAAAAACGCAGGAUAUGCAAAAAAAAAAAAAAAAGCAGAAGGGUGAAAAA [SameState1-I]
MS2 coat protein [1]
  apparent KD of MS2 coat protein: 0.103 µM
MS2 coat protein [2]
  apparent KD of MS2 coat protein: 0.0548 µM

## AGAAAGAAUAGAGAGGAUAUCUAUAAGAAAACAUGAGGAUCACCCAUGUAAAAGAAAAGAAAAUGGGAGAAGGCUCAUAAGAAAG [JL Skelter Mod 6 In the Red]
MS2 coat protein [1]
  apparent KD of MS2 coat protein: 0.0716 µM
MS2 coat protein [2]
  apparent KD of MS2 coat protein: 0.186 µM

## GAAAAACAUGAGGAUCACCCAUGUAGAAAUAUGGGAGGAUAUACUAAGACGAAAGUCGAAGUAGAAGGCCUAAAAG [Same State 1.4f (Mat - Mod of Eli - )]
MS2 coat protein [1]
  apparent KD of MS2 coat protein: 0.0542 µM
MS2 coat protein [2]
  apparent KD of MS2 coat protein: 0.0217 µM

## AAAUAAAUGACUAAGGAUAUAUCAGAGAAAACAUGAGGAUCACCCAUGUAAUAAUAAAAAGGGUGAUAGAAGGUAGUCAACAAACA [Pariah 4 (MS2 Riboswitches - Same State 2)]
MS2 coat protein [1]
  apparent KD of MS2 coat protein: 0.154 µM
MS2 coat protein [2]
  apparent KD of MS2 coat protein: 0.026 µM

## AAACCACAUGAGGAUCACCCAUGUAAGAUAUACAUAGGAUAUGCGAAAAGAAACAAAGAAGCAGAAGGGUGAAAAA [75%, Ex sub1, 14]
MS2 coat protein [1]
  apparent KD of MS2 coat protein: 0.0728 µM
MS2 coat protein [2]
  apparent KD of MS2 coat protein: 0.172 µM

## UGAAAACAUGAGGAUCACCCAUGUAAAAACAUGGGAGGAUAUUGAAAAAAAAAAAAAAAACAAGAAGGCCCAAAAA [crooked]
MS2 coat protein [1]
  apparent KD of MS2 coat protein: 0.0253 µM
MS2 coat protein [2]
  apparent KD of MS2 coat protein: 0.0377 µM

## AAAGAAAAACUAGAGGAUAUUUGAGUGGUAACAUGAGGAUCACCCAUGUGAAGAAAGGAGCAUGAGGAGAAGGCUAGAAGAAAAA [JL Nando mod 23]
MS2 coat protein [1]
  apparent KD of MS2 coat protein: 0.0687 µM
MS2 coat protein [2]
  apparent KD of MS2 coat protein: 0.0215 µM

## AGAAAUAAAUCUCAGGAUAUGGGUAAAUAAACAUGAGGAUCACCCAUGUAAAAGAAAAUAAAAAACCAGAAGGGAGAAAAUAAGA [Designing denovo 2]
MS2 coat protein [1]
  apparent KD of MS2 coat protein: 0.0392 µM
MS2 coat protein [2]
  apparent KD of MS2 coat protein: 0.0162 µM

## AAAAAACAUGAGGAUCACCCAUGUAAAAAAAUGGGAGGAUAUACAAAGACGAAAGUCAAAGUAGAAGGCCUGAAAG [same state 3]
MS2 coat protein [1]
  apparent KD of MS2 coat protein: 0.0584 µM
MS2 coat protein [2]
  apparent KD of MS2 coat protein: 0.0217 µM

## CGAAGACAUGAGGAUCACCCAUGUGGGAUUAUGGGAGGAUAUACAAAGACGAGAGUCAGAGUAGAAGGCCUAGGAG [salish99-ss1-126(!)]
MS2 coat protein [1]
  apparent KD of MS2 coat protein: 0.0471 µM
MS2 coat protein [2]
  apparent KD of MS2 coat protein: 0.0287 µM

## GGGAGACAUGAGGAUCACCCAUGUGAGAAGAGGCGAGGAUAUCGAAAGAAAGAAGAGAAACGAGAAGGCGCGAGAG [salish99-SS1-057]
MS2 coat protein [1]
  apparent KD of MS2 coat protein: 0.0598 µM
MS2 coat protein [2]
  apparent KD of MS2 coat protein: 0.048 µM

## ACGGCACAUGAGGAUCACCCAUGUGCCGAGAGGCGAGGAUAUCGAAAAAAAAAAAAAAAACGAGAAGGCGCGAGAA [SameState1NO]
MS2 coat protein [1]
  apparent KD of MS2 coat protein: 0.0111 µM
MS2 coat protein [2]
  apparent KD of MS2 coat protein: 0.0126 µM

## AGUCCACAUGAGGAUCACCCAUGUCUGGAGAAGACAGGAUAUAAGGAAAAAAAAAAAAACUUAGAAGGGUCAAAAA [Bexeusisus]
MS2 coat protein [1]
  apparent KD of MS2 coat protein: 0.0495 µM
MS2 coat protein [2]
  apparent KD of MS2 coat protein: 0.0268 µM

## ACUACACAUGAGGAUCACCCAUGUCAGGUGGGACUAGGAUAUUAUAAACCAGAGUAAAAAUAAGAAGGAGUAGAAA [JR_SS001_Sub308]
MS2 coat protein [1]
  apparent KD of MS2 coat protein: 0.0466 µM
MS2 coat protein [2]
  apparent KD of MS2 coat protein: 0.0518 µM

## AAGAAAGUUUACGAGGAUAUGUUCCGCAGAACAUGAGGAUCACCCAUGUGAACACGAAGUGCGACGCAGAAGGCGUGAGCAAUGA [Isenmaqu]
MS2 coat protein [1]
  apparent KD of MS2 coat protein: 0.13 µM
MS2 coat protein [2]
  apparent KD of MS2 coat protein: 0.0345 µM

## AAACCACAUGAGGAUCACCCAUGUAAAAUUAUGGGAGGAUAUACUAGAAGAAACAAAAUAGUAGAAGGCCUAAAAA [75%, Ex sub1, 33]
MS2 coat protein [1]
  apparent KD of MS2 coat protein: 0.0742 µM
MS2 coat protein [2]
  apparent KD of MS2 coat protein: 0.0159 µM

## AUAAAUAAAAUCGAGGAUAUCCAAAAAAAAACAUGAGGAUCACCCAUGUAAAAGAAAAUAAUAUGGGAGAAGGCGAAAAAUAAAU [SS2 M 5]
MS2 coat protein [1]
  apparent KD of MS2 coat protein: 0.0592 µM
MS2 coat protein [2]
  apparent KD of MS2 coat protein: 0.0368 µM

## AAUACACAUGGUCAGGAUAUCGCAGCUAGGACAUGAGGAUCACCCAUGUAGCAUGUAACUGAAACCGAGAAGGGACAGGGUGAUC [JR_SS002_Sub412]
MS2 coat protein [1]
  apparent KD of MS2 coat protein: 0.0851 µM
MS2 coat protein [2]
  apparent KD of MS2 coat protein: 0.0614 µM

## UGGAGACAUGAGGAUCACCCAUGUGAGAAGAGGCGAGGAUAUCGAAAAAAAAAAAAAAAACGAGAAGGCGCGAGAC [salish99-SS1-010]
MS2 coat protein [1]
  apparent KD of MS2 coat protein: 0.0412 µM
MS2 coat protein [2]
  apparent KD of MS2 coat protein: 0.0333 µM

## AAAUUACAUGAGGAUCACCCAUGUAGCGACGUUACAGGAUAUGUGGGUGAAAAUAGCAUGACAGAAGGGUACCGUA [SameState1 Malc#39]
MS2 coat protein [1]
  apparent KD of MS2 coat protein: 0.0608 µM
MS2 coat protein [2]
  apparent KD of MS2 coat protein: 0.077 µM

## GAAAAACAUGAGGAUCACCCAUGUGUAAACAUGGGAGGAUAUACAAAGACGUAAGUCAAAGUAGAAGGCCUAAGAG [Garnet 37]
MS2 coat protein [1]
  apparent KD of MS2 coat protein: 0.0153 µM
MS2 coat protein [2]
  apparent KD of MS2 coat protein: 0.128 µM

## GAAAAACAUGAGGAUCACCCAUGUAAGAUAAACACAGGAUAUGCGAAAAUAAAUAAAUAAGCAGAAGGGUGAAGAA [Mat - Same State 1 - Tesla mod - 74]
MS2 coat protein [1]
  apparent KD of MS2 coat protein: 0.0352 µM
MS2 coat protein [2]
  apparent KD of MS2 coat protein: 0.0115 µM

## UAUCAUUACACGAAGGAUAUCGAUAAUUGAACAUGAGGAUCACCCAUGUGAUAUAUUUUACAGUUCGAGAAGGUCGAGGGUGAAG [JR_SS002_Sub705]
MS2 coat protein [1]
  apparent KD of MS2 coat protein: 0.0324 µM
MS2 coat protein [2]
  apparent KD of MS2 coat protein: 0.0166 µM

## AAGAAACAUGAGGAUCACCCAUGUAAAAAUAUGGGAGGAUAUACAAGGACGUAAGUCAAGGUAGAAGGCCUAAGAA [Mat - Same State 1 - Meechl mod - D136]
MS2 coat protein [1]
  apparent KD of MS2 coat protein: 0.0825 µM
MS2 coat protein [2]
  apparent KD of MS2 coat protein: 0.0202 µM

## AAGAAACAUGAGGAUCACCCAUGUGUAAAUAUGGGAGGAUAUACAAGGACGUAAGUCAAGGUAGAAGGCCUAAGAA [Mat - Same State 1 - Meechl mod - D137]
MS2 coat protein [1]
  apparent KD of MS2 coat protein: 0.319 µM
MS2 coat protein [2]
  apparent KD of MS2 coat protein: 0.0294 µM

## AGGAAACAUGAGGAUCACCCAUGUAAAAAUAUGGGAGGAUAUAGAAAGACGAAAGUCAAACUAGAAGGCCUAAAAG [Garnet 5]
MS2 coat protein [1]
  apparent KD of MS2 coat protein: 0.0833 µM
MS2 coat protein [2]
  apparent KD of MS2 coat protein: 0.0161 µM

## CAGGACCUAGGAUAGGAUAUAUGAAUAAUUACAUGAGGAUCACCCAUGUCCAUUUAUAUGGGAACAUAGAAGGGUUCUGGUUAUG [Mat - Same state - Malcolm Mod - D134]
MS2 coat protein [1]
  apparent KD of MS2 coat protein: 0.0503 µM
MS2 coat protein [2]
  apparent KD of MS2 coat protein: 0.0208 µM

## AAAUAAAAAAGGGAGGAUAUUCAUGUGAAAACAUGAGGAUCACCCAUGUAAAAAAAUAAAAAUAAAAAGAAGGAAAAAUAAAAAA [SS2: 80 No MS2]
MS2 coat protein [1]
  apparent KD of MS2 coat protein: 0.151 µM
MS2 coat protein [2]
  apparent KD of MS2 coat protein: 0.00662 µM

## UAUCAUUACACGAAGGAUAUCGAAAAAAGAACAUGAGGAUCACCCAUGUGAAAUAAAAUACAGAACGAGAAGGUCGAGGGUGAAG [JR_SS002_Sub702]
MS2 coat protein [1]
  apparent KD of MS2 coat protein: 0.0303 µM
MS2 coat protein [2]
  apparent KD of MS2 coat protein: 0.0231 µM

## AAUAAGACUAGCAAGGAUAUCGAAAACGAGACAUGAGGAUCACCCAUGUAACGAGUAUAAGUAUACGAGAAGGUGCAGGGUGAAA [JR_SS002_Sub303]
MS2 coat protein [1]
  apparent KD of MS2 coat protein: 0.0867 µM
MS2 coat protein [2]
  apparent KD of MS2 coat protein: 0.075 µM

Source: the supplement of paper PMC9170038
